The supplement of paper PMC6755084

B1: minF1; the commonest letter at each place (parent)
chain: GAGACCGCAACTGAAAAGTTGTTATCAGAAATGGATGGGTTGAATTTCTGCACGTAGAAGCAAAAGGC

Variants of: B1
Experiment: fraction ligated after 30 min (ligated reads / total reads); higher = more ligase activity
Details: with F1*subA RNA substrate (template-directed ligation), 42 °C
How it was run: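 Ligated and unligated RNAs from a pool of minimized ligase ribozyme variants were separated on gels, reverse transcribed with barcoded primers and sequenced on a MiSeq. Core bases needed quality ≥30 to pass the filter. Each variant's fraction ligated was then taken as ligated reads over total reads.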

Variant	fraction ligated
A30T A44T	0.693
A30T A44C	0.52
A30T A44G	0.68
G28C G37A	0.0114
G28C G37C	0.0045
G28C G37T	0.0184
G28T A29G	0.832
G28T A29T	0.829
G28T A29C	0.784
A30C G34C	0.00405
A30C G34T	0.00409
A30C G34A	0.0885
A30G A31T	0.836
A30G A31G	0.84
A30G A31C	0.777
G28A G34C	0.00587
G28A G34T	0.00746
G28A G34A	0.0882
A30C A31C	0.714
A30C A31G	0.806
A30C A31T	0.771
A29T T36C	0.0219
A29T T36A	0.0343
A29T T36G	0.0504

Variant	fraction ligated
A31C T36A	0.0194
A30C A43T	0.0731
A30C A43G	0.0454
A30C A43C	0.0543
G28T T32C	0.0326
G28T T32A	0.0381
G28T T32G	0.0263
A29G A44G	0.753
A29G A44C	0.649
A29G A44T	0.76
G28T A31C	0.82
G28T A31G	0.82
G28T A31T	0.827
G28T	0.806
G28A	0.809
G28C	0.82
A30T G42C	0.00805
A30T G42T	0.0705
A30T G42A	0.202
A30C A44C	0.565
A30C A44G	0.686
A30C A44T	0.703
A30G G37A	0.00857
A30G G37C	0.00443

Variant	fraction ligated
A30G G37T	0.0167
G28C T32G	0.0241
G28C T32A	0.0353
G28C T32C	0.0192
A31C G42C	0.00681
A31C G42T	0.0885
A31C G42A	0.279
A29T G33A	0.783
A29T G33C	0.721
A29T G33T	0.453
A29T G34A	0.0752
A29T G34T	0.00673
A29T G34C	0.00521
A29C A31G	0.808
A29C A31T	0.842
A29C A31C	0.791
A30G G33C	0.805
A30G G33T	0.672
A30G G33A	0.821
A29G G42C	0.00737
A29G G42A	0.28
A29G G42T	0.096
A30T T36G	0.0328
A30T T36A	0.0264

Variant	fraction ligated
A30T T36C	0.0213
A29G A30T	0.817
A29G A30G	0.811
A29G A30C	0.84
A30G A35T	0.0595
A30G A35C	0.0448
A30G A35G	0.4
A31C G34C	0.0027
A31C G34T	0.00764
A31C G34A	0.055
G28T A30C	0.819
G28T A30G	0.835
G28T A30T	0.832
A29G G37C	0.0058
A29G G37T	0.0206
A29G G37A	0.0118
G28A A43G	0.0763
G28A A43T	0.102
G28A A43C	0.0816
A31C A35T	0.0132
A31C A35C	0.0149
A31C A35G	0.199
A29T A44T	0.741
A29T A44C	0.59

Variant	fraction ligated
A29T A44G	0.734
A29C A35G	0.189
A29C A35C	0.00361
A29C A35T	0.012
A30T T32G	0.0154
A30T T32A	0.0346
A30T T32C	0.0167
A29C G42T	0.0826
A29C G42A	0.283
A29C G42C	0.00616
A29C G33T	0.526
A29C G33A	0.784
A29C G33C	0.743
G28A A31C	0.802
G28A A31G	0.799
G28A A31T	0.821
G28C A43G	0.0597
G28C A43C	0.0652
G28C A43T	0.0901
A29G G34A	0.0509
A29G G34C	0.00249
A29G G34T	0.00809
A31C	0.813
A29T G42C	0.00612

Variant	fraction ligated
A29T G42T	0.0835
A29T G42A	0.269
G28C T36A	0.0306
G28C T36G	0.0324
G28C T36C	0.0172
A30T G34C	0.00584
A30T G34A	0.0989
A30T G34T	0.00578
G28A T32C	0.0224
G28A T32A	0.0454
G28A T32G	0.0134
A30C A35G	0.159
A30C A35C	0.00575
A30C A35T	0.01
A30G G42C	0.0189
A30G G42T	0.215
A30G G42A	0.487
A29G T36G	0.0397
A29G T36C	0.0189
A29G T36A	0.0285
G28T A35T	0.051
G28T A35G	0.437
G28T A35C	0.0723
G28A T36G	0.0443

Variant	fraction ligated
G28A T36C	0.0146
G28A T36A	0.0244
A30C G37C	0.00447
A30C G37A	0.009
A30C G37T	0.01
A29T G37T	0.027
A29T G37C	0.00775
A29T G37A	0.00694
A29G A43T	0.0936
A29G A43C	0.0987
A29G A43G	0.0803
A31C A44G	0.754
A31C A44C	0.655
A31C A44T	0.794
A29C T36C	0.0172
A29C T36G	0.0261
A29C T36A	0.0288
G28T A44G	0.759
G28T A44C	0.685
G28T A44T	0.794
A29G G33T	0.516
A29G G33C	0.709
A29G G33A	0.8
